The target of test [1] is T1, human CD38 on cells (human, UniProt P28907 1-300). The test can be described thus: cell-based or functional assay.
Test [2] has as its target T1, human CD38 on cells. Description: FACS binding on Ramos cells. (In flow cytometry, cells or beads pass a laser one at a time.)
For test [3], the target named is T1, human CD38 on cells. The test can be described thus: apparent KD, FACS titration on Ramos cells, non-linear regression.
Test [4] addresses T1, human CD38 on cells. The test can be described thus: FACS binding titration on Ramos cells.

B1: ch38SB31 chimeric anti-CD38 antibody (antibody, V domains shown)
VH: DVKLVESGGGLVKPGGSLKLSCEASGFTFSSYTLSWVRQTPETRLEWVATISIGGRYTYYPDSVEGRFTISRDNAKNTLYLQMNSLKSEDTAMYYCTRDFNGYSDFWGQGTTLTVSS
VL: DTVMTQSHKFISTSVGDRVSITCKASQVVGSAVAWYQQKPGQSPKLLIYWASTRHTGVPDRFTGSGSGTDFTLTISNVQSEDLADYFCQQYNSYPYTFGGGTKLEIKR
notes: also called chimeric 38SB31
Regarding B1, in the test with human CD38 on cells [1], the “ADCC EC50, LP-1 multiple myeloma cells” value amounted to 0.24 ng/mL; the “ADCC EC50, Ramos target cells, human NK effector cells, LDH release” value (from here on “ADCC EC50, Ramos target cells”) amounted to 1.2 ng/mL; the “CDC EC50, LP-1 multiple myeloma cells” value is 43 ng/mL; the “CDC EC50, Raji-IMG cells, human complement 5%” value (“CDC EC50 … human complement 5%” for short) is 10 ng/mL. Besides, the “CDC, specific viability of Daudi cells at 1.25 µg/mL or higher with complement” value (“CDC, specific viability of Daudi cells” for short) with human CD38 on cells [1] turned out to be 53%. Moreover, the Kd with human CD38 on cells [2] was 0.12 nM.

B2: 38SB31 murine anti-CD38 monoclonal antibody (antibody, V domains shown)
VH: DVKLVESGGGLVKPGGSLKLSCEASGFTFSSYTLSWVRQTPETRLEWVATISIGGRYTYYPDSVEGRFTISRDNAKNTLYLQMNSLKSEDTAMYYCTRDFNGYSDFWGQGTTLTVSS
VL: DTVMTQSHKFISTSVGDRVSITCKASQVVGSAVAWYQQKPGQSPKLLIYWASTRHTGVPDRFTGSGSGTDFTLTISNVQSEDLADYFCQQYNSYPYTFGGGTKLEIKR
notes: Murine hybridoma antibody; also called hybridoma PTA-7668
With B2, in the test with human CD38 on cells [1], the “apoptosis, Annexin V-positive Daudi cells after 24 h with 10 nM antibody” value (“apoptosis … with 10 nM antibody” for short) was above 30%; the “apoptosis, Annexin V-positive MOLP-8 cells” value is around 50%; the “apoptosis, Annexin V-positive Ramos cells after subtraction of the non-treated control” value (“apoptosis … of the non-treated control” below) is at least 7%. In addition, the Kd with human CD38 on cells [3] came out at 0.11 nM.

B3: hu38SB31 v1.1 humanized anti-CD38 antibody (antibody, V domains shown)
VH: EVQLVESGGGLVKPGGSLRLSCEASGFTFSSYTLSWVRQTPGKGLEWVATISIGGRYTYYPDSVKGRFTISRDNAKNTLYLQMNSLKSEDTAMYYCTRDFNGYSDFWGQGTTLTVSS
VL: DTVMTQSPSTISTSVGDRVSITCKASQVVGSAVAWYQQKPGQSPKLLIYWASTRHTGVPDRFTGSGSGTDFTLTISNVQSDDLADYFCQQYNSYPYTFGGGTKLEIKR
B3: the Kd with human CD38 on cells [2] worked out at 0.13 nM.

B4: hu38SB31 v1.2 humanized anti-CD38 antibody (antibody, V domains shown)
VH: EVQLVESGGGLVKPGGSLRLSCEASGFTFSSYTLSWVRQTPGKGLEWVATISIGGRYTYYPDSVKGRFTISRDNAKNTLYLQMNSLKSEDTAMYYCTRDFNGYSDFWGQGTTLTVSS
VL: DTVMTQSPSSISTSIGDRVSITCKASQVVGSAVAWYQQKPGQSPKLLIYWASTRHTGVPARFTGSGSGTDFTLTISNVQSEDLADYFCQQYNSYPYTFGGGTKLEIKR
Regarding B4, the Kd in the test with human CD38 on cells [2] stood at 0.11 nM.

B5: ch38SB19 chimeric anti-CD38 antibody (antibody, V domains shown)
VH: QVQLQQSGAELARPGTSVKLSCKASGYTFTDYWMQWVKQRPGQGLEWIGTIYPGDGDTGYAQKFKGKATLTADKSSKTVYMHLSSLASEDSAVYYCARGDYYGSNSLDYWGQGTSVTVSS
VL: DIVMAQSHKFMSTSVGDRVSITCKASQDVSTVVAWYQQKPGQSPKRLIYSASYRYIGVPDRFTGSGSGTDFTFTISSVQAEDLAVYYCQQHYSPPYTFGGGTKLEIKR
notes: also called chimeric 38SB19
For B5, in the test with human CD38 on cells [1], the “ADCC EC50, LP-1 multiple myeloma cells” value was determined as 0.34 ng/mL; the “ADCC EC50, Ramos target cells” value was 1.8 ng/mL; the “CDC EC50, LP-1 multiple myeloma cells” value was 30 ng/mL; the “CDC EC50 … human complement 5%” value came to 28 ng/mL. The molecule also showed a Kd with human CD38 on cells [4] of 0.18 nM.

B6: 38SB19 murine anti-CD38 monoclonal antibody (antibody, V domains shown)
VH: QVQLQQSGAELARPGTSVKLSCKASGYTFTDYWMQWVKQRPGQGLEWIGTIYPGDGDTGYAQKFKGKATLTADKSSKTVYMHLSSLASEDSAVYYCARGDYYGSNSLDYWGQGTSVTVSS
VL: DIVMAQSHKFMSTSVGDRVSITCKASQDVSTVVAWYQQKPGQSPKRLIYSASYRYIGVPDRFTGSGSGTDFTFTISSVQAEDLAVYYCQQHYSPPYTFGGGTKLEIKR
notes: also called mu38SB19; murine 38SB19
In the case of B6, in the test with human CD38 on cells [1], the “apoptosis … with 10 nM antibody” value was above 30%; the “apoptosis, Annexin V-positive MOLP-8 cells” value was around 50%; the “apoptosis … of the non-treated control” value was at least 7%. The Kd with human CD38 on cells [3] came out at 0.12 nM.

B7: ch38SB30 chimeric anti-CD38 antibody (antibody, V domains shown)
VH: QVQLQQSGPELVRPGASVKISCKTSGYAFSGSWMNWVKQRPGQGLEWIGRIYPGDGDIIYNGNFRDKVTLSADKSSNTAYMQLSSLTSVDSAVYFCSRWGTFTPSFDYWGQGTTLTVSS
VL: DIVMTQSHKFLSTSVGDRVSITCKASQDVVTAVAWFQQKPGQSPKLLIYSASHRYTGVPDRFTGSGSGTDFTFTIISVQAEDLAVYYCQQHYTTPTTFGGGTKLDFRR
With B7, in the test with human CD38 on cells [1], the “ADCC EC50, Ramos target cells” value came out at 2.2 ng/mL; the “CDC EC50 … human complement 5%” value was 20 ng/mL; the “CDC, specific viability of Daudi cells” value came out at 45%.

B8: 38SB30 murine anti-CD38 monoclonal antibody (antibody, V domains shown)
VH: QVQLQQSGPELVRPGASVKISCKTSGYAFSGSWMNWVKQRPGQGLEWIGRIYPGDGDIIYNGNFRDKVTLSADKSSNTAYMQLSSLTSVDSAVYFCSRWGTFTPSFDYWGQGTTLTVSS
VL: DIVMTQSHKFLSTSVGDRVSITCKASQDVVTAVAWFQQKPGQSPKLLIYSASHRYTGVPDRFTGSGSGTDFTFTIISVQAEDLAVYYCQQHYTTPTTFGGGTKLDFRR
notes: Murine hybridoma antibody; also called hybridoma PTA-7666
For B8, in the test with human CD38 on cells [1], the “apoptosis … with 10 nM antibody” value was above 30%; the “apoptosis, Annexin V-positive MOLP-8 cells” value was around 50%; the “apoptosis … of the non-treated control” value was at least 7%. Moreover, the Kd with human CD38 on cells [3] was determined as 0.16 nM.

B9: ch38SB13 chimeric anti-CD38 antibody (antibody, V domains shown)
VH: QIQLVQSGPELKKPGETVKISCKASGYTLTSYGMNWVKQAPGKGLKWMGWINTYTGEPTYADDFKGRFAFSLETSASTAFLQINNLKNEDTATYFCVRRGFAYWGQGTLVTVSA
VL: NIVLTQSPASLAVSLGQRATISCRASESVEIYGNGFMNWFQQKPGQPPKLLIYRASNLESGIPARFSGSGSRTEFTLTIDPVEADDVATYYCQQINEDPFTFGSGTKLEIKR
B9: in the test with human CD38 on cells [1], the “ADCC EC50, Ramos target cells” value turned out to be 1.3 ng/mL; the “CDC EC50 … human complement 5%” value came to 5 ng/mL; the “CDC, specific viability of Daudi cells” value came out at 65%.

B10: 38SB18 murine anti-CD38 monoclonal antibody (antibody, V domains shown)
VH: QIQLVQSGPELKKPGETVKISCKASGYTFTNSGMNWVKQAPGKGLKWMGWINTYTGEPTYADDFKGRFAFSLETSASSAYLQISNLKNEDTATYFCARRGFVYWGQGTLVTVSA
VL: DIVLTQSPASLAVSLGQRATISCRASESVAIYGNSFLKWFQQKPGQPPKLLIYRASNLESGIPARFSGSGSGTDFTLTINPVEADDVATYYCQQINEDPYTFGGGTKLEIKR
notes: Murine hybridoma antibody; also called hybridoma PTA-7669
For the molecule B10, in the test with human CD38 on cells [1], the “apoptosis … with 10 nM antibody” value is above 30%; the “apoptosis, Annexin V-positive MOLP-8 cells” value was around 50%; the “apoptosis … of the non-treated control” value was at least 7%. Further, in the test with human CD38 on cells [3], the Kd turned out to be 0.1 nM.

B11: 38SB13 murine anti-CD38 monoclonal antibody (antibody, V domains shown)
VH: QIQLVQSGPELKKPGETVKISCKASGYTLTSYGMNWVKQAPGKGLKWMGWINTYTGEPTYADDFKGRFAFSLETSASTAFLQINNLKNEDTATYFCVRRGFAYWGQGTLVTVSA
VL: NIVLTQSPASLAVSLGQRATISCRASESVEIYGNGFMNWFQQKPGQPPKLLIYRASNLESGIPARFSGSGSRTEFTLTIDPVEADDVATYYCQQINEDPFTFGSGTKLEIKR
notes: Murine hybridoma antibody purified by Protein A or G; also called hybridoma PTA-7667
As for B11, in the test with human CD38 on cells [1], the “apoptosis … with 10 nM antibody” value is above 30%; the “apoptosis, Annexin V-positive MOLP-8 cells” value was around 50%; the “apoptosis … of the non-treated control” value is at least 7%. Also, the Kd with human CD38 on cells [3] was found to be 0.1 nM.

B12: ch38SB18 chimeric anti-CD38 antibody (antibody, V domains shown)
VH: QIQLVQSGPELKKPGETVKISCKASGYTFTNSGMNWVKQAPGKGLKWMGWINTYTGEPTYADDFKGRFAFSLETSASSAYLQISNLKNEDTATYFCARRGFVYWGQGTLVTVSA
VL: DIVLTQSPASLAVSLGQRATISCRASESVAIYGNSFLKWFQQKPGQPPKLLIYRASNLESGIPARFSGSGSGTDFTLTINPVEADDVATYYCQQINEDPYTFGGGTKLEIKR
Turning to B12, in the test with human CD38 on cells [1], the “ADCC EC50, LP-1 multiple myeloma cells” value was 0.56 ng/mL; the “ADCC EC50, Ramos target cells” value is 1.3 ng/mL; the “CDC EC50, LP-1 multiple myeloma cells” value turned out to be 32 ng/mL; the “CDC EC50 … human complement 5%” value stood at 10.1 ng/mL. Further, the “CDC, specific viability of Daudi cells” value with human CD38 on cells [1] was 85%.

B13: ch38SB39 chimeric anti-CD38 antibody (antibody, V domains shown)
VH: NVQLVESGGGLVQPGGSRKLSCAASGFTFSNFGMHWVRQAPEKGLEWVAYIRSGSGTIYYSDTVKGRFTISRDNPKNTLFLQMTSLRSEDTAMYYCARSYYDFGAWFAYWGQGTLVTVSA
VL: DIVMTQSQKFMSTSVGDRVSVTCKASQNVGTNVAWYQHKPGQSPKIMIYSASSRYSGVPDRFTGSGSGTLFTLTINNVQSEDLAEYFCQQYNSYPLTFGSGTKLEIKR
Consider B13, for which, in the test with human CD38 on cells [1], the “ADCC EC50, Ramos target cells” value amounted to 113 ng/mL; the “CDC EC50 … human complement 5%” value is 400 ng/mL; the “CDC, specific viability of Daudi cells” value amounted to 91%.

B14: 38SB39 murine anti-CD38 monoclonal antibody (antibody, V domains shown)
VH: NVQLVESGGGLVQPGGSRKLSCAASGFTFSNFGMHWVRQAPEKGLEWVAYIRSGSGTIYYSDTVKGRFTISRDNPKNTLFLQMTSLRSEDTAMYYCARSYYDFGAWFAYWGQGTLVTVSA
VL: DIVMTQSQKFMSTSVGDRVSVTCKASQNVGTNVAWYQHKPGQSPKIMIYSASSRYSGVPDRFTGSGSGTLFTLTINNVQSEDLAEYFCQQYNSYPLTFGSGTKLEIKR
notes: Murine hybridoma antibody; also called hybridoma PTA-7671
Take B14: in the test with human CD38 on cells [1], the “apoptosis … with 10 nM antibody” value was above 30%; the “apoptosis, Annexin V-positive MOLP-8 cells” value was around 50%; the “apoptosis … of the non-treated control” value is at least 7%. Also, in the test with human CD38 on cells [3], the Kd is 3.03 nM.

The values above are taken from US20110262454A1 (published 2011).
